Experimental data as given in patent publication US20250019452A1 (Sanofi, published 2025).

Assays:
[1] = target: T1, IL-1R3 (human, UniProt Q9NPH3 21-570); assay: cell-based or functional assay
T1 sequence (looked up): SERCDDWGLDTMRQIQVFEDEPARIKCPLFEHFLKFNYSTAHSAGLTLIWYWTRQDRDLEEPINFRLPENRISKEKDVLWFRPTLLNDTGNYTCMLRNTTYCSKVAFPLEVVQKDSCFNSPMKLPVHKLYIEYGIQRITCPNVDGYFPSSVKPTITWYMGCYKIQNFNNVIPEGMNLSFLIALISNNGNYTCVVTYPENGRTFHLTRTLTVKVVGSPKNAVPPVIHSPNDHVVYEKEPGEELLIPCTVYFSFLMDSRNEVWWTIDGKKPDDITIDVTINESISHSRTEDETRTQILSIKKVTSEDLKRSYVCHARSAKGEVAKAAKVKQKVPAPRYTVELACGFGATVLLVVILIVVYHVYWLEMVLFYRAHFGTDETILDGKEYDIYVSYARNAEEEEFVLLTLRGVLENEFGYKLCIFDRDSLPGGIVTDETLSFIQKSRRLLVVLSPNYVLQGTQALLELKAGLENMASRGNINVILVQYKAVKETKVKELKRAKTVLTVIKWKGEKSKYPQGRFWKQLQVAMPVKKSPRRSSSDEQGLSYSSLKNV

[2] = target: T2, FcgammaRIIIa (V158) expressed on Jurkat effector cells (UniProt P08637 17-254, limits assumed); assay: cell based ADCC reporter gene assay, Jurkat FcgammaRIIIa (V158) effector cells with CHO IL1R3 target cells
T2 construct: whole, on cells; also called FcγRIII; Fc receptor of the effector cells
Description: The anti-IL-1R3 antibody in IgG1-LALA and IgG4-P-FALA format was tested for any ADCC activity using a reporter gene assay (iLite ADCC Bioassay #BM5001, SVAR Life Sciences, Malmö). This assay uses reporter-gene-carrying effector cells (Jurkat cells expression FcgammaRIIIa (V158)) that are used in conjunction with target cells that express the specific antigen at constant high levels (i.e. CHO ILIR3 target cells). Binding of the antibody to the target cell and binding of the effector cell to the Fc receptor of the antibody results in expression of the firefly luciferase reporter gene in the effector cell. The promoter of the firefly luciferase in the effector cells includes binding sites for NfkB, AP1, NFAT, CRE and STAT and thus includes the five principal transcription factors of the FcγRIII signal transduction pathway. The effector cells further comprise Renilla luciferase for normalization purposes.

B1: anti-IL-1R3-IgG4-P-FALA (antibody)
heavy: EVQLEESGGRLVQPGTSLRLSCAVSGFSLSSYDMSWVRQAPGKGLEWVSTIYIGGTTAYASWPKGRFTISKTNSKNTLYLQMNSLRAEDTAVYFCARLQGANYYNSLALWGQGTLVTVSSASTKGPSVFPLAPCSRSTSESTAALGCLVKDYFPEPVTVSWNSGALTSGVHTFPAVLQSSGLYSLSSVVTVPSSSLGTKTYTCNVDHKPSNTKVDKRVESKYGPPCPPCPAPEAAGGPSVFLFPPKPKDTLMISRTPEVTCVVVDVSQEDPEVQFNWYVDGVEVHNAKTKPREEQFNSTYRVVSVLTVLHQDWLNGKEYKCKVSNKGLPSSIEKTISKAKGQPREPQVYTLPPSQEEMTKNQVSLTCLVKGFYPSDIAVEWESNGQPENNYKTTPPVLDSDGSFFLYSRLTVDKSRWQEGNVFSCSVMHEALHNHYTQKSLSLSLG
light: DVQMTQSPSSLSASVGDRVTITCQASQSIYSFLSWYQQKPGQAPKLLIYAASDLESGVPSRFSGSGSGTDFTLTISSLQPEDFATYYCQSNYIIDYGAFGQGTKVVIKRTVAAPSVFIFPPSDEQLKSGTASVVCLLNNFYPREAKVQWKVDNALQSGNSQESVTEQDSKDSTYSLSSTLTLSKADYEKHKVYACEVTHQGLSSPVTKSFNRGEC
notes: Humanized antibody, human IgG4 backbone with S228P, F234A, L235A (EU) in the Fc region; also called anti-IL-1R3 IgG4-P-FALA Ab; aIL-1R3-IgG4; copies: 2 + 2
IL8 release_hIL1b & hIL33 & IL36g, rel IC50 in nM [1]: 8.5 nM | IL8 release_hIL1b & hIL36g, rel IC50 in nM [1]: 2.38 nM | IL8 release_hIL1 beta, rel IC50 in nM [1]: 13.4 nM | IL8 release_hIL33, rel IC50 in nM [1]: 2.34 nM | IL8 release_hIL36g, rel IC50 in nM [1]: 0.45 nM | binding result [2]: no binding
